Laboratory results reported in patent US20180044422A1, “TREATING SOLID TUMOR BY TARGETING DECTIN-1 SIGNALING” (New York University, priority 2016, published 2018).
Blank lines part the entries; values can stand above or below the substance they belong to.

Experiments:
[1] = target: recombinant mouse Galectin-9 (R&D Systems) (mouse) (UniProt O08573); assay: Control in the bead flow cytometry assay: Dectin-1 IgG Fc beads + rGal-9, stained with the fluorescent isotype antibody instead of αGal-9 (row + + - + -) [cont.) F]
[2] = target: Elongation factor 1-gamma (mouse) (UniProt Q9D8N0); assay: Dectin-1 Fc affinity purification from KPC cell lysate, mass spectrometry
Elongation factor 1-gamma (mouse), sequence (Q9D8N0 2-437 limits assumed): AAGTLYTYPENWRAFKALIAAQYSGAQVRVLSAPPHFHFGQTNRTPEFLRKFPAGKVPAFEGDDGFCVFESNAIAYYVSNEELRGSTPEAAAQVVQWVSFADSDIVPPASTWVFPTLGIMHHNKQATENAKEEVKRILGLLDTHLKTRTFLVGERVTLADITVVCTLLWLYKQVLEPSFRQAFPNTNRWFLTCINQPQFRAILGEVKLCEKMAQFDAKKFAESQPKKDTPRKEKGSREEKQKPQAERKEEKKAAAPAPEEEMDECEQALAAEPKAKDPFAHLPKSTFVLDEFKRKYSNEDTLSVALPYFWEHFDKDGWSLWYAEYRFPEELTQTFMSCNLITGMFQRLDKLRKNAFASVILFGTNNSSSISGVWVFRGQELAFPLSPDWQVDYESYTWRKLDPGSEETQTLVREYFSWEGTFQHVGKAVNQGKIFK

[3] = target: Sodium/potassium-transporting ATPase subunit alpha-1 (mouse) (UniProt Q8VDN2); assay: as above
[4] = target: Elongation factor 1-alpha 1 (mouse) (UniProt P10126); assay: as above
[5] = target: Putative uncharacterized protein (Sqrdl) (mouse) (UniProt Q9R112); assay: as above
[6] = target: 60S ribosomal protein L18 (mouse) (UniProt P35980); assay: as above
[7] = target: Cytochrome b-c1 complex subunit 2, mitochondrial (mouse) (UniProt Q9DB77); assay: as above
Cytochrome b-c1 complex subunit 2, mitochondrial (mouse), sequence (Q9DB77 15-453 limits assumed, one chain of several): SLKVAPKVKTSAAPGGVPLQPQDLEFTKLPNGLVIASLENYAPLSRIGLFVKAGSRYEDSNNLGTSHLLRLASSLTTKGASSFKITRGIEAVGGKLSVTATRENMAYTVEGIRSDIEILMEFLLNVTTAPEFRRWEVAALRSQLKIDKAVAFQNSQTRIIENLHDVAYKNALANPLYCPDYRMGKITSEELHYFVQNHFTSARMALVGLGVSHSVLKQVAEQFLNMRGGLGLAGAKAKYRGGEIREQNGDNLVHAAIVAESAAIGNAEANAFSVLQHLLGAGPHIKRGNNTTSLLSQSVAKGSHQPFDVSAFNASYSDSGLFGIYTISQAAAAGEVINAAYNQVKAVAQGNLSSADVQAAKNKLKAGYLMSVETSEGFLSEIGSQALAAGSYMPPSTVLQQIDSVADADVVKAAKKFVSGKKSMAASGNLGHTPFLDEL

[8] = target: Isoform 2 of Microtubule-associated protein 4 (mouse) (UniProt P27546); assay: as above
Isoform 2 of Microtubule-associated protein 4 (mouse), sequence (P27546 other isoform, or with tags, fused parts or gaps limits assumed): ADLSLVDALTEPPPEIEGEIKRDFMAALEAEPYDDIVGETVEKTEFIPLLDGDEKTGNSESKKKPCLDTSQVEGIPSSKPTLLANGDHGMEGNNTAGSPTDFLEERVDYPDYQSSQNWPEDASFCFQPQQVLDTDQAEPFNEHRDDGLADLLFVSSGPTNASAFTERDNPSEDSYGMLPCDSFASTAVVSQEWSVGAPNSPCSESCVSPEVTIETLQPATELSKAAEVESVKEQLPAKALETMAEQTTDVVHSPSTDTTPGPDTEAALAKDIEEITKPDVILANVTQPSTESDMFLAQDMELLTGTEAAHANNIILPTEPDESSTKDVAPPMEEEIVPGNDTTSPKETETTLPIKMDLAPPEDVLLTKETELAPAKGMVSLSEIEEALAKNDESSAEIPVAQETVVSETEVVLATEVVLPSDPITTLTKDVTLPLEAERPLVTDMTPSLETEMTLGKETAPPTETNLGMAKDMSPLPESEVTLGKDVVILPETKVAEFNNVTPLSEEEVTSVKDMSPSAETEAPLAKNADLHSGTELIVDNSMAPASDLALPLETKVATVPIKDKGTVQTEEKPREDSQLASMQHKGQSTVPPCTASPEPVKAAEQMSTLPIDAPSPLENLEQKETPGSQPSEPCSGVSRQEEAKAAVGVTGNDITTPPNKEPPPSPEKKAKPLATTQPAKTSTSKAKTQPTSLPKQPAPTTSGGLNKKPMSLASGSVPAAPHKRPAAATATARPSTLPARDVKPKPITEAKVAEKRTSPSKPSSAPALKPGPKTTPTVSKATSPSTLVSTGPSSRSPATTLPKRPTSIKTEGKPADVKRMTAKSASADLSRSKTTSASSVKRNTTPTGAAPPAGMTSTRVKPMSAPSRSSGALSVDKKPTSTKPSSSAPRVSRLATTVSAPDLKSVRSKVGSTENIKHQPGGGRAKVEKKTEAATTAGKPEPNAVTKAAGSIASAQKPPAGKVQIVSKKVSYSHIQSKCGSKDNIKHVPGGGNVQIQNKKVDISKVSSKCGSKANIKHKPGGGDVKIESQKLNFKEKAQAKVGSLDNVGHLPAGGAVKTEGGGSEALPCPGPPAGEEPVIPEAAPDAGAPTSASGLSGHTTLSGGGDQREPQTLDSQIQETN

Clusterin (mouse) = Clusterin (mouse) (UniProt Q06890); assay: as above
Endoplasmin (mouse) = Endoplasmin (mouse) (UniProt P08113); assay: as above
Endoplasmin (mouse), sequence (P08113 22-802 limits assumed): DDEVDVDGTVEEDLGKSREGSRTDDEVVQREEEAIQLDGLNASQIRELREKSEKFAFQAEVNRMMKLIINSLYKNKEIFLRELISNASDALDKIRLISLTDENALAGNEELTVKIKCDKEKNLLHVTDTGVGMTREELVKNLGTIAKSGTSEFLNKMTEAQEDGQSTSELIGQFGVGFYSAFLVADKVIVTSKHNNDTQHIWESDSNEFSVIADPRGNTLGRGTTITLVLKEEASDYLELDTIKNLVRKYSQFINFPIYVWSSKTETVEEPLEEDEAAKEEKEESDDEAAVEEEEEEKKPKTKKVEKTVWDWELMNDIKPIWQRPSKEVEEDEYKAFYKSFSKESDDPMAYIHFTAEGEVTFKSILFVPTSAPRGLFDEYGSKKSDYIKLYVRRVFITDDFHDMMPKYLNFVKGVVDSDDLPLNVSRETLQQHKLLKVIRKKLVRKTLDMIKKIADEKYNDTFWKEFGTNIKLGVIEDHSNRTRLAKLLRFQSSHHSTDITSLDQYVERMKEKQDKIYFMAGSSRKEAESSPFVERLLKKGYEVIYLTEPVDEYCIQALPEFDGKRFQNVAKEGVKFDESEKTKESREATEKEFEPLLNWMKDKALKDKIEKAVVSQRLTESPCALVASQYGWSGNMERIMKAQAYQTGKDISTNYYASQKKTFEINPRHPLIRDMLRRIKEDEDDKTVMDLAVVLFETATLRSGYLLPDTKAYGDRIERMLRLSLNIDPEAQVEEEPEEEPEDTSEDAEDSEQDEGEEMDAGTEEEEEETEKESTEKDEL

[9] = target: Polyadenylate-binding protein 1 (mouse) (UniProt P29341); assay: as above
Polyadenylate-binding protein 1 (mouse), sequence (P29341 whole entry): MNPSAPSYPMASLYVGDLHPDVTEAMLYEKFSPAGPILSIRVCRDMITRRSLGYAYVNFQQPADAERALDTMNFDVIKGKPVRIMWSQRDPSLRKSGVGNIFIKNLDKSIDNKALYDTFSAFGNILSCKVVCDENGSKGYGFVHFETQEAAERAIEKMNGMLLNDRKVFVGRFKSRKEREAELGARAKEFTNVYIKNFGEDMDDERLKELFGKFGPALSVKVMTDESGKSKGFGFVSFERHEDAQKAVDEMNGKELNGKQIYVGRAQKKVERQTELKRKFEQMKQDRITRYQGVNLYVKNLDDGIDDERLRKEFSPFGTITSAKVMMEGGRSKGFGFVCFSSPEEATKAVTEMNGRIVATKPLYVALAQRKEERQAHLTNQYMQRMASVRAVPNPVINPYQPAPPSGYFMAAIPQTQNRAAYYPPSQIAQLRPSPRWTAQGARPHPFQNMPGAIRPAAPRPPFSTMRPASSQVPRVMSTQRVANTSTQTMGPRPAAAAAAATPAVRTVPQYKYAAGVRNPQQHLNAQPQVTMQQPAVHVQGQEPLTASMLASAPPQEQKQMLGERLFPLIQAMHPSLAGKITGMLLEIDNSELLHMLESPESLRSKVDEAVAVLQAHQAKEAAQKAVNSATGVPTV

[10] = target: Probable ATP-dependent RNA helicase DDX17 (mouse) (UniProt Q501J6); assay: as above
Probable ATP-dependent RNA helicase DDX17 (mouse), sequence (Q501J6 whole entry): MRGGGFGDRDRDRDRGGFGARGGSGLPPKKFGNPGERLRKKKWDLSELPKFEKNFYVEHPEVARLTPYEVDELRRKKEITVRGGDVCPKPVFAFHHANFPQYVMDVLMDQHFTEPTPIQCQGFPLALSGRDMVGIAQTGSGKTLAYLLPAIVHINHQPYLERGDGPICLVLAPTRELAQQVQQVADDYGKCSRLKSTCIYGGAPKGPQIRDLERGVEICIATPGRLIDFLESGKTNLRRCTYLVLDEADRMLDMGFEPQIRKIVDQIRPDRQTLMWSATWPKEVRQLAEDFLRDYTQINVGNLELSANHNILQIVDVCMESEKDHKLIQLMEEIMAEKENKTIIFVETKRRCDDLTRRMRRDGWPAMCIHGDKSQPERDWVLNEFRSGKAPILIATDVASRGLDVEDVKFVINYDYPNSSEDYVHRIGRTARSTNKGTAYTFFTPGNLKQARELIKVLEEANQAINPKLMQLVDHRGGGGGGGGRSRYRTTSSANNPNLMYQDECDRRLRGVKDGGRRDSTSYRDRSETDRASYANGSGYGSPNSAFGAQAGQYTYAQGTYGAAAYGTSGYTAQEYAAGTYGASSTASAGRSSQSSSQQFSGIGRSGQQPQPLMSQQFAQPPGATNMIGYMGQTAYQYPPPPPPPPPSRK

[11] = target: Dolichyl-diphosphooligosaccharide-protein glycosyltransferase subunit 1 (mouse) (UniProt Q91YQ5); assay: as above
Dolichyl-diphosphooligosaccharide-protein glycosyltransferase subunit 1 (mouse), sequence (Q91YQ5 26-608 limits assumed): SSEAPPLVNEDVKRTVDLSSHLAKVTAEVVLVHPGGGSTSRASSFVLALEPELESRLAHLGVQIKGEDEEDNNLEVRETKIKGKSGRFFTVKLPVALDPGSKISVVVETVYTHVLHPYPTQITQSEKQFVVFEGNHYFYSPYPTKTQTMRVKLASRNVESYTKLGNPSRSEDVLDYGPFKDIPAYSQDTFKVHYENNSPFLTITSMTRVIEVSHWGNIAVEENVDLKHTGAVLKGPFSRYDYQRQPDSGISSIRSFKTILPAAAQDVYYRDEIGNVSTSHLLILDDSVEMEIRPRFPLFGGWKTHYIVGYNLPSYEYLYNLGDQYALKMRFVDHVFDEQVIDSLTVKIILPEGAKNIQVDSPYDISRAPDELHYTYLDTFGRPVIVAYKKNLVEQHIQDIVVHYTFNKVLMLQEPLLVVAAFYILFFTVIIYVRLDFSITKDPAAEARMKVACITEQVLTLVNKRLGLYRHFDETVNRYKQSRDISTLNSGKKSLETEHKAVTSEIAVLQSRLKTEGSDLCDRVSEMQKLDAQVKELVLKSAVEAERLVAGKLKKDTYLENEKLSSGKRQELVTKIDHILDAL

Prohibitin (mouse) = Prohibitin (mouse) (UniProt P67778); assay: as above
Peroxiredoxin-1 (mouse) = Peroxiredoxin-1 (mouse) (UniProt P35700); assay: as above
Peroxiredoxin-1 (mouse), sequence (P35700 2-199 limits assumed): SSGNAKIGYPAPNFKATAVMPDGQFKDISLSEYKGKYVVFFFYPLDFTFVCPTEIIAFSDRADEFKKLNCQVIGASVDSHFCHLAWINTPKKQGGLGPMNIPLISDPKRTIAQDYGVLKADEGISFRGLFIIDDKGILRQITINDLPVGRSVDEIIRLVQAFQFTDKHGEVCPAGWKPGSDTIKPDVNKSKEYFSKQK

Eef2 protein (mouse) = Eef2 protein (mouse) (UniProt P58252); assay: as above

human IgG Fc-conjugated Dectin-1 fusion protein (murine Dectin-1 IgG Fc; fc-mdec1a, InvivoGen), sequence (Q6QLQ4 69-244 limits assumed): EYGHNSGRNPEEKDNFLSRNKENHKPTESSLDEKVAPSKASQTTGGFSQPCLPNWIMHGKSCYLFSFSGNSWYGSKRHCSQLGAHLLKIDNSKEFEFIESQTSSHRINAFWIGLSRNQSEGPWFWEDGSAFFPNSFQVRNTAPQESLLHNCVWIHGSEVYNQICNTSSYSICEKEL

- MFI [1]: 669
Substance: fluorescently-conjugated isotype antibody

- # PSM (IP1) (peptide spectral matches) [2]: 11
- # PSM (IP2) (peptide spectral matches) [2]: 11
- # PSM (IP1) (peptide spectral matches) [3]: 13
- # PSM (IP2) (peptide spectral matches) [3]: 14
- # PSM (IP1) (peptide spectral matches) [4]: 23
- # PSM (IP2) (peptide spectral matches) [4]: 48
- # PSM (IP1) (peptide spectral matches) [5]: 6
- # PSM (IP2) (peptide spectral matches) [5]: 19
- # PSM (IP1) (peptide spectral matches) [6]: 4
- # PSM (IP2) (peptide spectral matches) [6]: 10
- # PSM (IP1) (peptide spectral matches) [7]: 8
- # PSM (IP2) (peptide spectral matches) [7]: 8
- # PSM (IP1) (peptide spectral matches) [8]: 6
- # PSM (IP2) (peptide spectral matches) [8]: 23
- # PSM (IP1) (peptide spectral matches) (Clusterin (mouse)): 8
- # PSM (IP2) (peptide spectral matches) (Clusterin (mouse)): 9
- # PSM (IP1) (peptide spectral matches) (Endoplasmin (mouse)): 30
- # PSM (IP2) (peptide spectral matches) (Endoplasmin (mouse)): 8
- # PSM (IP1) (peptide spectral matches) [9]: 13
- # PSM (IP2) (peptide spectral matches) [9]: 92
- # PSM (IP1) (peptide spectral matches) [10]: 7
- # PSM (IP2) (peptide spectral matches) [10]: 36
- # PSM (IP1) (peptide spectral matches) [11]: 7
- # PSM (IP2) (peptide spectral matches) [11]: 14
- # PSM (IP1) (peptide spectral matches) (Prohibitin (mouse)): 5
- # PSM (IP2) (peptide spectral matches) (Prohibitin (mouse)): 6
- # PSM (IP1) (peptide spectral matches) (Peroxiredoxin-1 (mouse)): 7
- # PSM (IP2) (peptide spectral matches) (Peroxiredoxin-1 (mouse)): 16
- # PSM (IP1) (peptide spectral matches) (Eef2 protein (mouse)): 23
- # PSM (IP2) (peptide spectral matches) (Eef2 protein (mouse)): 31
Substance: human IgG Fc-conjugated Dectin-1 fusion protein (murine Dectin-1 IgG Fc; fc-mdec1a, InvivoGen) (from UniProt Q6QLQ4 69-244) (Fc fusion)
